For one series, the system named is intact nerves. Description: Morphometric analysis of nerve sections: myelin thickness of non-crushed, intact nerves. As to conditions: long-term treatment over 8 weeks, vs PBS control. It counts as in vivo, wildtype mice. The protocol: Analysis of axon calibre, myelination thickness and solidity factor was conducted on semi-thin and ultra-thin sections of the sciatic nerve removed from transcardially perfused mice. Mice were perfused with a solution containing 3% paraformaldehyde and 3% glutaraldehyde in 0.1 M phosphate buffer (pH 7.4). Sections were postfixed for 1 h and kept in fixative including 3% sucrose. Sections were obtained from the distal part of the sciatic nerve. Sectioning and staining were performed as described. Images of toluidine blue-stained semi-thin sections were taken using an Axioskop 2 MOT (Carl Zeiss, Germany) equipped with a 100× immersion oil objective and an Olympus XC50 digital camera (Olympus, Germany). Standardized settings for camera sensitivity, resolution (2,576×1,932 pixels) and brightness of illumination were used for all micrographs. Ultra-thin sections were analysed with an electron microscope (EM910, Carl Zeiss) equipped with an integrated TRS 1K digital camera (Carl Zeiss). Image analysis was conducted with ImageJ version 1.48u. RGB colour images obtained from semi-thin sections were split into single channels and the green channel was chosen for measurements. The image was contrasted using the auto function. Axon and myelin were circumscribed manually by the freehand selection tool. Based on the measured areas, the thicknesses of the axons and myelin sheaths were calculated. […]

Series [1] deals with sciatic nerve crush injury. Description: Single-frame motion analysis (foot-base angle): functional recovery after sciatic nerve crush. Format: in vivo, mice. From the text:
Unilateral injuries of sciatic nerves were accomplished according to a previously described method (Bauder and Ferguson, 2012). In brief, 8 to 10 week old mice were anesthetized using 2% isoflurane in 100% oxygen. Fur was then removed from one hind limb. After an appropriate incision of the skin, the gluteal musculature was separated in order to reveal the right sciatic nerve. Using haemostatic forceps (Ultra Fine Haemostat; #13021-12; tip width 0.6 mm; Fine Science Tools; Germany), the nerve was crushed once by the application of a defined pressure for 20 s. The locking mechanism of the haemostatic forceps with a series of interlocking teeth ensured reproducibility and standardization of crush injury. Finally, both the gluteal musculature and skin incision were sutured using appropriate surgical suture material.
To evaluate locomotor function, mice were accustomed, in 3-4 trials, to beam-walking 1 week prior to surgery. In this test, the animal walks voluntarily from one end of a horizontal beam (length 1000 mm, width 40 mm) towards its home cage located at the other end of the beam. For all mice, a rear view of one walking trial was captured once prior to surgery and at different time-points after surgery with a Video camera and stored on a personal computer in Audio Video Interleaved (AVI) format. The video sequences were examined using VirtualDub 1.6.19 software.
It was tested whether rhNRG1 protein replacement can improve functional recovery of mice over a time period of 8 weeks after sciatic nerve crush.

Series [2] concerns Schwann cell differentiation markers in crushed sciatic nerves. Description: Immunoblot of sciatic nerve lysates after 3 months of treatment. Format: in vivo, Nf2flox;P0-Cre;Nefh-Cre mice. The protocol: Immunoblotting was performed as described in (Morrison et al., 2001). The following primary antibodies were used: phospho-c-Jun (Ser73; 1:1000; Cell Signalling; 8752), anti-Nrg1 (1:250; Santa Cruz; clone C-20), anti-Erk (1:500; Cell Signalling), anti-phospho-Erk (T202/Y204; 1:500; Cell Signalling), anti-ErbB2 (1:500; Cell Signalling), anti-GAPDH (1:1000; Santa Cruz; 6C5), anti-merlin (1:500; Santa Cruz; A19). Western blot results were quantified using Gel analysis software by ImageJ. Density values were normalized to actin and appropriate controls of transfection or wild-type tissue, respectively. In case of phospho-specific detection of proteins, their acquired densities were referred to signals derived from related pan-antibodies (e.g. phospho-Erk to Erk signals).
(§1) Sciatic nerve crush injury was performed on WT and Nf2flox;P0-Cre;Nefh-Cre mutant animals as described in Example 1. The Nf2flox;P0-Cre;Nefh-Cre mutant animals were intraperitoneally injected every day with 10 μg of rhNRG1 per kg body weight (KO rhNRG1). For a control a PBS solution was systemically administered to WT animals and Nf2flox;P0-Cre;Nefh-Cre mutant animals (WT vehicle and KO vehicle). Sciatic nerve lysates were taken from animals after 3 month of treatment upon which immunochemistry was performed as described in Example 1.
(In general: In western blotting, separated proteins are transferred to a membrane and probed.)

For the next series, the system named is Schwann cells. Description: Neuropathological assessment (HE, immunolabelling) of sciatic nerve cross sections 3 months after crush injury. Format: in vivo, P0-Cre;Nefh-Cre;Nf2fl/+ mice. The conditions noted are these: KO mice.
Description: For histological workup, paraformaldehyd fixed nerve samples were embedded in paraffin, cut at the site of the largest diameter and mounted as a tissue micro array. 4 μm thick cross sections were used for H&E staining and immunohistochemical labelling of S100 (1:8000; Dako), P0 (1:300; Bioss Antibodies), phospho-c-Jun (Ser73; 1:500; Cell Signalling; 8752), ErbB2 (1:500; Cell Signaling) and Arginase-1 (1:200; Santa Cruz; H-52) in an automated Ventana stainer (Ventana Medical Systems, USA) using standard antigen retrieval protocols (CC1st, no pretreatment for S100-protein). Onion-bulbs and schwannoma-like structures were assessed in H&E stained slides.
Immunohistochemistry was performed as described in (Schulz et al., 2010). Briefly, paraffin-embedded, longitudinal sections of sciatic nerves were rehydrated, boiled in 10 mM sodium citrate buffer (pH9) for 30 min in a microwave and subsequently treated with 0,5% Triton X-100 for 10 min. Sections incubated in 0.2% gelatine and 2% goat serum diluted in PBS at least 2 h. Sections submersed in the primary antibody solution overnight at 4° C. The following primary antibodies were used: Myelin protein zero (P0; 1:200; Abcam; ab39375), neurofilament (1:200; BioLegend; SMI312), myelin basic protein (MBP; 1:500; Millipore; MAB384)), Ki-67 (1:200; eBioscience; Clone: SolA15), lba-1 (1:200; Wako), and p75 (1:200; Merck Millipore; AB 1554). After vigorous washings, sections incubated with secondary antibody solution (Alexa488-, Alexa546- or Alexa647-conjugated anti-mouse, -rat, -chicken and -rabbit antibodies, 1:500 in PBS, Invitrogen) at room temperature for 2 h. Finally specimens washed in PBS, counterstained using DAPI (1 μg/ml PBS, 10 min) dehydrated and embedded. DAPI-stained cell nuclei or lba-1-positive cells were counted using ImageJ plugin ‘Particle Analysis’ from images acquired with 10× magnification after standardized background reduction and threshold setting.
as §1

The mark [3] stands for this setting: systemic rhNRG1, 3 months after crush injury.
The mark [4] stands for this setting: systemic rhNRG1 vs saline-treated same genotype.

B1: rhNRG1: EGF domain containing 7 kDa protein of recombinant human Neuregulin 1, purchased from Reprokine (#RKQ02297) (protein, listed as Homo sapiens)
chain: SHLVKCAEKEKTFCVNGGECFMVKDLSNPSRYLCKCPNEFTGDRCQNYVMASFYKHLGIEF
For B1, in the series on intact nerves, the “impact on the microarchitecture of intact nerves (myelin thickness, g-ratio)” value was “no obvious impact”. The “functional recovery after sciatic nerve crush (SFMA)” value in series [1] (Nf2flox;P0-Cre;Nefh-Cre mutant mice, intraperitoneal injections every other day, vs no treatment or saline) is “significantly improved recovery”. The “functional regeneration after sciatic nerve crush (SFMA)” value in series [1] (Nf2flox;P0-Cre;Nefh-Cre mutant mice, local administration with absorbable collagen sponges, vs control treatment) is “able to increase functional regeneration”. Besides, in series [1] (wildtype animals, systemic rhNRG1, 8 weeks), the “functional recovery after sciatic nerve crush (SFMA)” value was “does not enhance regeneration”. Also, in series [2] (KO rhNRG1), the “21.5-kDa MBP isoform expression (immunoblot)” value is “strong up-regulation”. Also, the “myelin protein zero (MPZ) expression (immunoblot)” value in series [2] (KO rhNRG1, 3 months of treatment, vs wildtype) is recorded as “reduced expression”. Also, the “17 kDa myelin basic protein (MBP) isoform expression (immunoblot)” value in series [2] (KO rhNRG1 vs wildtype littermates) is reported as “remarkable reduced expression”. Besides, in series [2] (knockout animals, systemic rhNRG1 injections), the “c-Jun levels (marker for undifferentiated Schwann cells)” value is listed as “reduced”. In addition, in series [2] (rhNRG1-treated knockout mice, high in vehicle-treated knockout), the “ErbB2 expression (immunoblot)” value is given as “normal expression”. The “macrophage number in nerve tissue (Iba-1 immunoblot)” value in series [2] (systemic rhNRG1 treatment) was “not influenced”. Moreover, the “number of immature Schwann cells (p75 staining)” value in the series on Schwann cells (rhNRG1 injections) is “relevantly decreased”. The “immunoreactivity of schwannoma marker CPI-17” value in the series with Schwann cells (rhNRG1 vs KO control injections) is recorded as “relevantly lower”. Also, in the series on Schwann cells (setting [3]), the “S100 and MPZ immunoreactivity” value was “restricted to Schwann cells with myelinating phenotype”; the “nerve regeneration (histology)” value is recorded as “almost regular regeneration”. In addition, in the series with Schwann cells (setting [4]), the “expression of Neuregulin1 (immunolabelling)” value was “greatly reduced” and the “expression of receptor tyrosine kinase ErbB2 (immunolabelling)” value is on record as “greatly reduced”.

(Values after patent US11426447B2, “Neuregulin for the treatment of tumors of the nervous system” (LEIBNIZ-INSTITUT FUR …, priority 2016, dated 2022).)
